# Measured values reported in IntAct's records for PubMed 19542283.
# B1: Chemotaxis protein CheA (Escherichia coli (strain K12)), P07363-2 (parent)
# chain: MQEQLDAYKQSQEPDAASFDYICQALRQLALEAKGETPSAVTRLSVVAKSEPQDEQSRSQSPRRIILSRLKAGEVDLLEEELGHLTTLTDVVKGADSLSAILPGDIAEDDITAVLCFVIEADQITFETVEVSPKISTPPVLKLAAEQAPTGRVEREKTTRSNESTSIRVAVEKVDQLINLVGELVITQSMLAQRSSELDPVNHGDLITSMGQLQRNARDLQESVMSIRMMPMEYVFSRYPRLVRDLAGKLGKQVELTLVGSSTELDKSLIERIIDPLTHLVRNSLDHGIELPEKRLAAGKNSVGNLILSAEHQGGNICIEVTDDGAGLNRERILAKAASQGLTVSENMSDDEVAMLIFAPGFSTAEQVTDVSGRGVGMDVVKRNIQKMGGHVEIQSKQGTGTTIRILLPLTLAILDGMSVRVADEVFILPLNAVMESLQPREADLHPLAGGERVLEVRGEYLPIVELWKVFNVAGAKTEATQGIVVILQSGGRRYALLVDQLIGQHQVVVKNLESNYRKVPGISAATILGDGSVALIVDVSALQAINREQRMANTAA
# partner: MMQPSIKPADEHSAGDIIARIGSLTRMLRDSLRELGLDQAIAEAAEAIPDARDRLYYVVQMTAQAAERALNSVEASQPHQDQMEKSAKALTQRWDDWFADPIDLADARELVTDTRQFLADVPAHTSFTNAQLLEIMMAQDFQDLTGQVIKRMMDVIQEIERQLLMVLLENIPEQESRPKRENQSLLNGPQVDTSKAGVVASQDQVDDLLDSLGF
# Variants of: B1
# Details: with chez_ecoli cheZ
row,Variant,effect of a mutation on the interaction
1,MQEQLDAYKQSQEPDAASFDYSCQALRQLALEAKGETPSAVTRLSVVAKSEPQDEQSRSQSPRRIILSRLKAGEVDLLEEELGHLTTLTDVVKGADSLSAILPGDIAEDDITAVLCFVIEADQITFETVEVSPKISTPPVLKLAAEQAPTGRVEREKTTRSNESTSIRVAVEKVDQLINLVGELVITQSMLAQRSSELDPVNHGDLITSMGQLQRNARDLQESVMSIRMMPMEYVFSRYPRLVRDLAGKLGKQVELTLVGSSTELDKSLIERIIDPLTHLVRNSLDHGIELPEKRLAAGKNSVGNLILSAEHQGGNICIEVTDDGAGLNRERILAKAASQGLTVSENMSDDEVAMLIFAPGFSTAEQVTDVSGRGVGMDVVKRNIQKMGGHVEIQSKQGTGTTIRILLPLTLAILDGMSVRVADEVFILPLNAVMESLQPREADLHPLAGGERVLEVRGEYLPIVELWKVFNVAGAKTEATQGIVVILQSGGRRYALLVDQLIGQHQVVVKNLESNYRKVPGISAATILGDGSVALIVDVSALQAINREQRMANTAA [I22S],disrupting interaction strength
2,MQEQLDAYKQSQEPDAASFDYICQASRQLALEAKGETPSAVTRLSVVAKSEPQDEQSRSQSPRRIILSRLKAGEVDLLEEELGHLTTLTDVVKGADSLSAILPGDIAEDDITAVLCFVIEADQITFETVEVSPKISTPPVLKLAAEQAPTGRVEREKTTRSNESTSIRVAVEKVDQLINLVGELVITQSMLAQRSSELDPVNHGDLITSMGQLQRNARDLQESVMSIRMMPMEYVFSRYPRLVRDLAGKLGKQVELTLVGSSTELDKSLIERIIDPLTHLVRNSLDHGIELPEKRLAAGKNSVGNLILSAEHQGGNICIEVTDDGAGLNRERILAKAASQGLTVSENMSDDEVAMLIFAPGFSTAEQVTDVSGRGVGMDVVKRNIQKMGGHVEIQSKQGTGTTIRILLPLTLAILDGMSVRVADEVFILPLNAVMESLQPREADLHPLAGGERVLEVRGEYLPIVELWKVFNVAGAKTEATQGIVVILQSGGRRYALLVDQLIGQHQVVVKNLESNYRKVPGISAATILGDGSVALIVDVSALQAINREQRMANTAA [L26S],disrupting interaction strength
3,MQEQLDAYKQSQEPDAASFDSICQALRQLALEAKGETPSAVTRLSVVAKSEPQDEQSRSQSPRRIILSRLKAGEVDLLEEELGHLTTLTDVVKGADSLSAILPGDIAEDDITAVLCFVIEADQITFETVEVSPKISTPPVLKLAAEQAPTGRVEREKTTRSNESTSIRVAVEKVDQLINLVGELVITQSMLAQRSSELDPVNHGDLITSMGQLQRNARDLQESVMSIRMMPMEYVFSRYPRLVRDLAGKLGKQVELTLVGSSTELDKSLIERIIDPLTHLVRNSLDHGIELPEKRLAAGKNSVGNLILSAEHQGGNICIEVTDDGAGLNRERILAKAASQGLTVSENMSDDEVAMLIFAPGFSTAEQVTDVSGRGVGMDVVKRNIQKMGGHVEIQSKQGTGTTIRILLPLTLAILDGMSVRVADEVFILPLNAVMESLQPREADLHPLAGGERVLEVRGEYLPIVELWKVFNVAGAKTEATQGIVVILQSGGRRYALLVDQLIGQHQVVVKNLESNYRKVPGISAATILGDGSVALIVDVSALQAINREQRMANTAA [Y21S],disrupting interaction strength

# More lines, now with the values ahead:
row,effect of a mutation on the interaction,Variant
1,decreasing interaction strength,MQEQLDAYKQSQEPDAASFDYACQALRQLALEAKGETPSAVTRLSVVAKSEPQDEQSRSQSPRRIILSRLKAGEVDLLEEELGHLTTLTDVVKGADSLSAILPGDIAEDDITAVLCFVIEADQITFETVEVSPKISTPPVLKLAAEQAPTGRVEREKTTRSNESTSIRVAVEKVDQLINLVGELVITQSMLAQRSSELDPVNHGDLITSMGQLQRNARDLQESVMSIRMMPMEYVFSRYPRLVRDLAGKLGKQVELTLVGSSTELDKSLIERIIDPLTHLVRNSLDHGIELPEKRLAAGKNSVGNLILSAEHQGGNICIEVTDDGAGLNRERILAKAASQGLTVSENMSDDEVAMLIFAPGFSTAEQVTDVSGRGVGMDVVKRNIQKMGGHVEIQSKQGTGTTIRILLPLTLAILDGMSVRVADEVFILPLNAVMESLQPREADLHPLAGGERVLEVRGEYLPIVELWKVFNVAGAKTEATQGIVVILQSGGRRYALLVDQLIGQHQVVVKNLESNYRKVPGISAATILGDGSVALIVDVSALQAINREQRMANTAA [I22A]
2,disrupting interaction strength,MQEQLDAYKQSQEPDAASFDYICQAARQLALEAKGETPSAVTRLSVVAKSEPQDEQSRSQSPRRIILSRLKAGEVDLLEEELGHLTTLTDVVKGADSLSAILPGDIAEDDITAVLCFVIEADQITFETVEVSPKISTPPVLKLAAEQAPTGRVEREKTTRSNESTSIRVAVEKVDQLINLVGELVITQSMLAQRSSELDPVNHGDLITSMGQLQRNARDLQESVMSIRMMPMEYVFSRYPRLVRDLAGKLGKQVELTLVGSSTELDKSLIERIIDPLTHLVRNSLDHGIELPEKRLAAGKNSVGNLILSAEHQGGNICIEVTDDGAGLNRERILAKAASQGLTVSENMSDDEVAMLIFAPGFSTAEQVTDVSGRGVGMDVVKRNIQKMGGHVEIQSKQGTGTTIRILLPLTLAILDGMSVRVADEVFILPLNAVMESLQPREADLHPLAGGERVLEVRGEYLPIVELWKVFNVAGAKTEATQGIVVILQSGGRRYALLVDQLIGQHQVVVKNLESNYRKVPGISAATILGDGSVALIVDVSALQAINREQRMANTAA [L26A]
